Consider 11 molecules from patent US20210179707A1 (published 2021).

Substitutions are numbered along the chain they refer to.

The target of experiment [1] is T1, hPAR3 (Biotin) (human, biotin on the C-terminal lysine (GGGGSK-biotin, SKB)).
T1 construct: also called hPAR3 peptide
T1 peptide: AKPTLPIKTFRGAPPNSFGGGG
Put plainly: ELISA, hybridoma supernatant. (In an ELISA, binding on a coated surface is turned into a signal by an enzyme label.)

The target of experiment [2] is T2, hPAR1 (Biotin) (human, biotin on the C-terminal lysine (GGGGSK-biotin, SKB)).
T2 construct: also called hPAR1 peptide
T2 peptide: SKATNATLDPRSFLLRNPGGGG
As to the kind of experiment: ELISA, hybridoma supernatant.

The target of experiment [3] is T3, human PAR4 on isolated human platelets (human, UniProt Q96RI0 18-385).
T3 construct: Native receptor of donor platelets (genotypes AA, AT, TT at residue 120); also called hPAR4
T3 sequence: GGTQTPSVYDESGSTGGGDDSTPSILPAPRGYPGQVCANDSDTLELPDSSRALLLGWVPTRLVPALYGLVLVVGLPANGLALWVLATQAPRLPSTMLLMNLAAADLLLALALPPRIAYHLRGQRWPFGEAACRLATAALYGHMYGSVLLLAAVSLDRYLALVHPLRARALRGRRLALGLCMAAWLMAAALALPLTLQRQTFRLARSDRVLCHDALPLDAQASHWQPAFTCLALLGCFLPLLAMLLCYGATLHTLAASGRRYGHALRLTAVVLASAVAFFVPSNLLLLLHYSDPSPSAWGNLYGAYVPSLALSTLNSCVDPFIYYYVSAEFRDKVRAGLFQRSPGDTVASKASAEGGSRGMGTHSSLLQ
Put plainly: flow cytometry on isolated human platelets. On the technique in general: In flow cytometry, cells or beads pass a laser one at a time.

Experiment [4] deals with T1, hPAR3 (Biotin). As to the kind of experiment: ELISA, biotinylated peptides on streptavidin plate. As to the method: (§1) Biotinylated peptides (hPAR1-4) were diluted in Wash buffer and allowed to bind to the blocked Streptavidin coated wells at 10 ug/ml (100 ul per well) for 1 hour at room temperature with gentle mixing. Wells were washed 3 times as above and purified anti-hPAR4 mAbs prepared at 10 ug/ml in Wash buffer were allowed to bind (100 ul/well) for 1 hour at room temperature with gentle mixing. The plate was washed 3 times as above and anti-mouse Fc conjugated to Alkaline phosphatase (AP) at 0.3 ug/ml (100 ul) was added to the wells for 1 hour as above. Wells were washed 3 times as above and developed with Alkaline Phosphatase substrate as described for the screening supernatant ELISA.
(§2) To further characterise the purified anti-hPAR4 mAb's the specificity of the mAbs to hPAR1, hPAR2, hPAR3 and hPAR4 biotinylated peptides was performed.

For experiment [5], the target named is T4, hPAR2 (Biotin) (human, biotin on the C-terminal lysine (GGGGSK-biotin, SKB)).
T4 construct: also called hPAR2 peptide
T4 peptide: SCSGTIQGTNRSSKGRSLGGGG
Put plainly: ELISA, biotinylated peptides on streptavidin plate. The method, then:
as §1, §2

Experiment [6] deals with T2, hPAR1 (Biotin). As to the kind of experiment: ELISA, biotinylated peptides on streptavidin plate. As to the method:
as §1, §2

For experiment [7], the target named is T5, hPAR4 (Biotin) (human, biotin on the C-terminal lysine (GGGGSK-biotin, SKB)).
T5 construct: also called hPAR4 biotinylated peptide; Human PAR4 peptide (biotinylated)
T5 peptide: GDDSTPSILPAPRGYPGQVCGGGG
As to the kind of experiment: SPR (Biacore T200), biotinylated hPAR4 peptide on SA chip, mAb as analyte. Background: SPR reads the build-up and loss of mass on a sensor chip optically.

Experiment [8] addresses T5, hPAR4 (Biotin). As to the kind of experiment: SPR (Bio-Rad ProteOn XPR36), biotinylated peptide captured, antibody as analyte.

B1: 5H.RD2 (antibody, IgG1, V domains shown)
VH: EVQLVESGGDLVKPGGSLRLSCSASGFTFFNTWMNWVRQAPGKGLEWVGRVKSKNDGGTKDYAAPVTGRFTISRDDSKDTLYLQMNSLKTEDTAVYYCTTDPHYDFWSAYWGQGTLVTVSS
VL: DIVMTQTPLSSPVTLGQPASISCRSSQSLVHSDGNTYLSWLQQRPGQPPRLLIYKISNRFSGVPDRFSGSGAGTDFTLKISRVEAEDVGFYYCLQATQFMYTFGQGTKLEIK
notes: Human variable regions on mouse constant regions; isotype IgG1/κ; also called 5H.RD2.A7b; MoB5H-RD2.A7b
Consider B1, for which the “Binding to PAR3 ratio” value in experiment [1] turned out to be 0.9 ratio. Moreover, the “Binding to PAR1 ratio” value in experiment [2] was determined as 1 ratio.

B2: 5D.RH4 (antibody, IgG2a, V domains shown)
VH: QIQLVESGGGVVQPGRSLRLSCAASGFTFSSDGMHWVRQAPGKGLEWVAVIWFDGRNKYYLDSVKGRFTISRDNSKNTLYLQMNSLRAEDTAVYYCARESSISTRPPFDYWGQGTLVTVSS
VL: not shown
notes: Human variable regions on mouse constant regions; isotype IgG2a/κ; also called 5D.RH4.G7.E6.C7b.G7
As to B2, the “Binding to human platelets, FACS GMFI at 10 ug/ml (over isotype control)” value (“Binding … (over isotype control)” for short) in experiment [3] worked out at 33 GMFI.

B3: 5G.RG1 (antibody, IgG1, V domains shown)
VH: QVQLVESGGGVVQPGRSLRLSCVASGFTLSSYGMHWVRQAPGKGLEWVAVIWYDGSSKYYTDSVKGRFDISRDNSKNTLYLQMNILRAEDTAVYYCARETILIGGVPFDYWGQGTLVTVSS
VL: EIVLTQSPGTLSLSPGERATLSCGASQSIRSNYLAWYQQKPGQAPRLLIYGASSRATGTPDRFSGSGSGTDFTLTITRLEPEDFALYYCQQYGRSYTFGQGTKLEIK
notes: Human variable regions on mouse constant regions; isotype IgG1/κ; Tested as parent hybridoma supernatant (MoB5G G1); also called 5G RG1.D3.C2b; MoB5G G1
As to B3, in experiment [1], the “Binding to PAR3 ratio” value worked out at 0.8 ratio. In addition, in experiment [2], the “Binding to PAR1 ratio” value came out at 1.1 ratio.

B4: 5G.RA1 (antibody, IgG2a, V domains shown)
VH: B3 VH with V23A, L29F, S57N, T61A, D69T, I85S, I101A, I103V, G104R
VL: not shown
notes: Human variable regions on mouse constant regions; isotype IgG2a/κ; also called 5G.RA1.E10.G3; MoB5G A1
Turning to B4, the “Binding … (over isotype control)” value in experiment [3] was found to be 25 GMFI.

B5: 5H.RH4 (antibody, IgG2b, V domains shown)
VH: QVQLQQWGAGLLKPSETLSLTCAVYGGSFSNYYWSWIHQPPGKGLEWIGEINHSGSTNYNPSLKSRVTISVDTSKKQFSLNLSSVTAADTAVYYCKVEHSSSSGHYYYGMDVWGQGTTVTVSS
VL: DIQMTQSPSSLSASVGDRVTITCRASQTISYYLNWYQQKPGKAPKLLIYAASRLQSGVPSRFSGSGSGTDFTLTISSLQPEDFTTYYCQQSYSTPLTFGGGTKVGIK
notes: Human variable regions on mouse constant regions; isotype IgG2b/κ; Tested as parent hybridoma supernatant (MoB5H H4); also called 5H RH4.C8b.A3.A6; MoB5H H4
As for B5, the “Binding to PAR3 ratio” value in experiment [1] turned out to be 0.9 ratio. Besides, the “Binding to PAR1 ratio” value in experiment [2] was 1 ratio.

B6: 5A.RC3 (antibody, IgG2a, V domains shown)
VH: QVQLVESGGGVVQPGRSLRLSCAASGFTLSNYGMHWVRQAPGKGLEWVSVIWYDGSNKHYADSVKGRFTISRDNSKNTLYLQMNSLRAEDTAVYYCARESIVEVLPPFDYWGQGTLVTVSS
VL: KIVLTQSPGTLSLSPGERVTLSCRASQRVRNNYLAWFQQKPGQAPRLFIYGASSRATGIPDRFSGSGSGTDFIFTISRLEPEDFAVYYCQQYGNSYTFGQGTKLEIK
notes: Human variable regions on mouse constant regions (HumAb mice); isotype IgG2a/κ; also called 5A.RC3.F10b.H4b; MoB5A-RC3.F10b.H4b
For B6, the “Binding … (over isotype control)” value in experiment [3] amounted to 39 GMFI. Besides, the binding result in experiment [4], in experiment [5] and in experiment [6] was “no binding (tested: 10 ug/ml)” each time. Also, the Kd was 0.32 nM in experiment [7] and ~0.4 nM in experiment [8]. Moreover, the off-rate (koff) in experiment [7] was 0.000417 s⁻¹. The molecule further had a kon in experiment [7] of 1.32e+06 M⁻¹ s⁻¹.

B7: 5F.RE6 (antibody, IgG2a, V domains shown)
VH: QVQLAESGGGVVQPGRSLRVSCAASGFTFSSYGMHWVRQAPGKGLEWVAVIWYDGTKKYYADSLKGRFTISRDNSKYTLYLQMNSLRADDTALYFCARKGARGITGLDYWGQGTLVTVSS
VL: DIQMTQSPSSLSASAGDRITITCRASQSISNYLNWYQQKPGKAPKLLIYAASSLQSGVPSRFSGSGSGTDFTLTISSLQPEDFASYYCRQNYNTPLTFGGGTKVEIK
notes: Human variable regions on mouse constant regions; isotype IgG2a/κ; Tested as parent hybridoma supernatant (MoB5F E6); also called 5F RE6.D3.E7; MoB5F E6
In the case of B7, in experiment [1], the “Binding to PAR3 ratio” value stood at 0.8 ratio. For the same molecule, in experiment [2], the “Binding to PAR1 ratio” value stood at 1.1 ratio.

B8: 5H.RF2 (antibody, IgG2a, V domains shown)
VH: QVQLQQWGAGLLKPSETLALTCAVYGGSLSDYYWSWIRQPPGKGLEWIGEINHSGTTNYNPSLKSRVTISVDTSKKQFSLKLSSVTAADTAVYYCAIEYSNSRGYYYGMDVWGQGTTVTVSS
VL: B7 VL with S28T
notes: Human variable regions on mouse constant regions; isotype IgG2a/κ; also called 5H.RF2.A5b.D3.C2; MoB5H F2
As for B8, the “Binding to PAR3 ratio” value in experiment [1] is 0.9 ratio. Further, in experiment [2], the “Binding to PAR1 ratio” value amounted to 1 ratio. Also, in experiment [4], the binding result was “no binding (tested: 10 ug/ml)”. Further, the binding result in experiment [5] was “no binding (tested: 10 ug/ml)”. Besides, the binding result in experiment [6] is “no binding (tested: 10 ug/ml)”. For the same molecule, in experiment [7], the dissociation constant Kd came out at 0.61 nM, the koff came to 0.00111 s⁻¹ and the kon stood at 1.84e+06 M⁻¹ s⁻¹.

B9: 5I.RG1 (antibody, IgG3, V domains shown)
VH: QVQLQQWGAGLLKPSETLSLACAISSGSFSTYFWRWIRQPPGKGLEWIGEIIHTGSTTYNPSLKSRVTISVDTSKNQLSLKLSSVTAADTAVYYCAFEYSSSGGYYYGMDVWGQGTTVTVSS
VL: B5 VL with T28S, Y31S, K39I, K45N, R53S, Q55R, T84A, S91T, G105E
notes: Human variable regions on mouse constant regions; isotype IgG3/κ; also called 5I.RG1.D6.C1b; 51.RG1
As for B9, the “Binding to PAR3 ratio” value in experiment [1] amounted to 1 ratio. Besides, the “Binding to PAR1 ratio” value in experiment [2] was determined as 1 ratio. Further, the binding result in experiment [4] is reported as “no binding (tested: 10 ug/ml)”. Besides, the binding result in experiment [5] is listed as “no binding (tested: 10 ug/ml)”. Moreover, in experiment [6], the binding result is “no binding (tested: 10 ug/ml)”. In experiment [7], this molecule returned a Kd of 0.36 nM, a koff of 0.000667 s⁻¹ and a kon of 1.85e+06 M⁻¹ s⁻¹.

B10: 5H.RA3 (antibody, IgG2a, V domains shown)
VH: B7 VH with A5V, H35L
VL: not shown
notes: Human variable regions on mouse constant regions; isotype IgG2a/κ; also called 5H.RA3.D3b.A2b; MoB5H A3
As for B10, the “Binding … (over isotype control)” value in experiment [3] is 100 GMFI.

B11: 5F.RF3 (antibody, IgG2b, V domains shown)
VH: QVQLVQSGAEVKKPGASVKVSCKTSAYTFTNYGISWVRQAPGQGLEWMGWISPYNGNTNYAQKLQGRVTMTTDTSTRTAYMELRSLRSDDTAVYYCAREYNRSSRGRYYYYGMDVWGQGTTVTVSS
VL: EIVLTQSPGTLSLSPGERATLSCRASQSVSSNYLAWYQKKPGQAPRLLISGASSRATGIPDRFSGSGSGTDFTLTISRLEPEDFAVYYCQQYGSSPWTFGQGTKVEIK
notes: Human variable regions on mouse constant regions; isotype IgG2b/κ; also called 5F.RF3.A7b.C9; MoB5F-RF3.A7b.C9
In the case of B11, the “Binding … (over isotype control)” value in experiment [3] turned out to be 53 GMFI.

As a reminder, the Kd is a measure of binding affinity in units of concentration. Higher therefore signals lower affinity. For orientation: koff means the rate constant with which the complex falls apart. Lower therefore signals slow dissociation. For orientation: kon means the rate constant with which the complex forms. Higher therefore signals faster complex formation.
